Data as given in US20240189392A1.

Experiments:
Assay in all cases: cell-based or functional assay
human RXFP2 (human) = human RXFP2 (human) (UniProt Q8WXD0)
human RXFP3 (human) = human RXFP3 (human) (UniProt Q9NSD7)
human RXFP4 (human) = human RXFP4 (human) (UniProt Q8TDU9)
Sequence of human RXFP4 (human) (Q8TDU9 whole entry): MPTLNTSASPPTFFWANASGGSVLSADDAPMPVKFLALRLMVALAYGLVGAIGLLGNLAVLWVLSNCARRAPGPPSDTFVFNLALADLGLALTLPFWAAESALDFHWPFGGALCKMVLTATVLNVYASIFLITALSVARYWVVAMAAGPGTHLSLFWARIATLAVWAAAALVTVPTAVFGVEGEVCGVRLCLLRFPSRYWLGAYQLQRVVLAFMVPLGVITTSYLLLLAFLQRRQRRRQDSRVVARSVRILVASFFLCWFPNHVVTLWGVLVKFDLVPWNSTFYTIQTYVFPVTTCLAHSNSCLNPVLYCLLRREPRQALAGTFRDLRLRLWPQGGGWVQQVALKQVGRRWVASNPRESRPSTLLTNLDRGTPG

Sequence of human RXFP2 (human) (Q8WXD0 whole entry): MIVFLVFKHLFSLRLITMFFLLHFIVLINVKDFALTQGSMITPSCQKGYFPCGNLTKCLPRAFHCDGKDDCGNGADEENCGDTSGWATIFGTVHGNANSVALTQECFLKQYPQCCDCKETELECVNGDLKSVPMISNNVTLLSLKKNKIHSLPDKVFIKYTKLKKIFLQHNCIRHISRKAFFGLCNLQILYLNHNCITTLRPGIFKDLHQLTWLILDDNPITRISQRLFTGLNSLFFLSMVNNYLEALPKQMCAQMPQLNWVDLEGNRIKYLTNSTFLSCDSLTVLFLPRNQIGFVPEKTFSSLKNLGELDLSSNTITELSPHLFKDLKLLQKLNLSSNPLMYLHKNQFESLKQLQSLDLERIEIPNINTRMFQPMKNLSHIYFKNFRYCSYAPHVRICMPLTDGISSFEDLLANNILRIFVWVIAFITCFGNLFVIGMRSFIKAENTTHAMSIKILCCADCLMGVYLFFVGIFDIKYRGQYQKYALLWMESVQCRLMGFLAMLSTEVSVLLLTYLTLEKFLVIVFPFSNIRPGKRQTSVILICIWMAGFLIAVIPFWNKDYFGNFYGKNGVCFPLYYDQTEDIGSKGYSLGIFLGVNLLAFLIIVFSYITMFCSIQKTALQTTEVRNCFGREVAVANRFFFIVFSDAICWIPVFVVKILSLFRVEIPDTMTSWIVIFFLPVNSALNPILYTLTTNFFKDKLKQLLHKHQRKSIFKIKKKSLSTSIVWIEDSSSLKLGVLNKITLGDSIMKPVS
Sequence of human RXFP3 (human) (Q9NSD7 whole entry): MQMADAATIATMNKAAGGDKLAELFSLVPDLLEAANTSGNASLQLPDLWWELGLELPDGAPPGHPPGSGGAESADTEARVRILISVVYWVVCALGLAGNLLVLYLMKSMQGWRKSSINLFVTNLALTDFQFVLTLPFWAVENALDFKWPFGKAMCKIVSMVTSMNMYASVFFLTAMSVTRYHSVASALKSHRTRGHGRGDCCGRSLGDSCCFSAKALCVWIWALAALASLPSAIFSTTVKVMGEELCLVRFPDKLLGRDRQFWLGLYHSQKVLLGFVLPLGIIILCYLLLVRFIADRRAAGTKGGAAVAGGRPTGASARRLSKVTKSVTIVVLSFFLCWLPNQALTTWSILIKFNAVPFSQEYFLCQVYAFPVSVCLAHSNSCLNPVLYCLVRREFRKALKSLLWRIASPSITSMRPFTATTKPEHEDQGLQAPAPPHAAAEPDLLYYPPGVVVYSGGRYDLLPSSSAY

| cAMP Assay EC50 (nM), human RXFP2/CHO-K1 cells (human RXFP2 (human)) [nM] | cAMP Assay EC50 (nM), inhibition of forskolin-induced cAMP, human RXFP3/CHO-K1 cells (human RXFP3 (human)) [nM] | cAMP Assay EC50 (nM), inhibition of forskolin-induced cAMP, human RXFP4/CHO-K1 cells (human RXFP4 (human)) [nM] | maximal inhibition of forskolin-induced cAMP, human RXFP4/CHO-K1 cells (human RXFP4 (human)) [%] | Substance |
| --- | --- | --- | --- | --- |
| 0.46 |  |  |  | insulin like 3 protein (INSL3) (from UniProt P51460 21-131) (ligand) |
|  | 0.6 | 2.8 | 40 | recombinant human relaxin 3 (H3-RLX) (from UniProt Q8WXF3 26-142) (ligand) |
